According to patent US20150132307A1 (Hoffmann-La Roche, published 2015):

T1: Human IL17C (human, UniProt Q9P0M4 19-197)
T1 sequence: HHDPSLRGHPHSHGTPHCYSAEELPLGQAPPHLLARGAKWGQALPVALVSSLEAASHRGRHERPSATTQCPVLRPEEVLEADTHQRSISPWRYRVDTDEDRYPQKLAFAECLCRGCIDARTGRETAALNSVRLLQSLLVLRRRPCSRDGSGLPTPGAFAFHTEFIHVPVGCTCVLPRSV

T2: Human IL17F (human, UniProt Q96PD4 31-163)
T2 sequence: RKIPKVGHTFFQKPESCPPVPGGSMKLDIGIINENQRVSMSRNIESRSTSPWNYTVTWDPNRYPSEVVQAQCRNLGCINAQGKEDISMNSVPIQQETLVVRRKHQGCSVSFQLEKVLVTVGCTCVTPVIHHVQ

T3: Human IL17B (human, UniProt Q9UHF5 21-180)
T3 sequence: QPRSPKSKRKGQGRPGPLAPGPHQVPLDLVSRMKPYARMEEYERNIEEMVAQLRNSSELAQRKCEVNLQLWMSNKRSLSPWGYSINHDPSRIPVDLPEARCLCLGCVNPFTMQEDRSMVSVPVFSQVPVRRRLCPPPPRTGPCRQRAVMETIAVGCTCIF

T4: Human IL17D (human, UniProt Q8TAD2 16-202, limits assumed)
T4 sequence: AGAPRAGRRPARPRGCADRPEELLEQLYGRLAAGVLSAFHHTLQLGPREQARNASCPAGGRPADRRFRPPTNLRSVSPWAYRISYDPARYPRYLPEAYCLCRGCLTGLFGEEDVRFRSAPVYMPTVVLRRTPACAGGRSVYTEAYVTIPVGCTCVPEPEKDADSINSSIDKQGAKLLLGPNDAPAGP

T5: IL-17 F/F (human, UniProt Q96PD4 31-163)
T5 construct: read as the homodimer of IL17F
T5 sequence: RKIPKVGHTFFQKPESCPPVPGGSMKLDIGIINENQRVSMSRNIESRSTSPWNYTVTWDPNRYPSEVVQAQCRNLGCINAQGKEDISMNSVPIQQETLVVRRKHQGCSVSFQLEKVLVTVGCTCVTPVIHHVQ

T6: human Tweak-Fc (human, UniProt O43508 106-249, limits assumed)
T6 construct: not shown: Fc part
T6 sequence: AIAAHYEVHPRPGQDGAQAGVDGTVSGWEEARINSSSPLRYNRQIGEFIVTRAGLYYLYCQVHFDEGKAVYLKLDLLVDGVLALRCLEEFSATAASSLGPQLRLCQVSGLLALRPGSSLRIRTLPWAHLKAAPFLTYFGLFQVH

T7: Recombinant human TWEAK (R&D Systems; Cat. #1090-TW/CF) (human, UniProt O43508 97-249, limits assumed)
T7 sequence: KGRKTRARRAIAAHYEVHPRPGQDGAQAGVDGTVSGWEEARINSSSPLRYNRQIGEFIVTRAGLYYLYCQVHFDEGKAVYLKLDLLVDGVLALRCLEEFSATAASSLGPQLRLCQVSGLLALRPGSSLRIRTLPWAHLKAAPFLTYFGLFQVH


Tests used:
[1] = target: T8, recombinant human IL-17 (Peprotech #200-17) (human, UniProt Q16552 20-155); experiment: cell-based or functional assay
Human IL17C = target: T1, Human IL17C; experiment: ELISA on coated IL-17 subtype; OD relative to IL-17A binding (100)
Description: (§1) NUNC® Maxisorp plates (96-well) are coated with recombinant human IL-17 (Peprotech #200-17, www.peprotech.com) at a concentration of 0.5 μg/ml in PBS ([…]). Plates are incubated at 37° C. on an orbital shaker with agitation for 2 hours. Thereafter coating solution is removed and 100 μl/well PBSTC (phosphate buffered saline, 0.05% Tween®20, 2% chicken serum) is added. Plates are incubated at room temperature for 1 hour. […] The second antibody is diluted 1:10000 in PBSTC and plates are incubated for 1 hour at room temperature with agitation. Second antibody is removed, plates are washed three times with 200 μl/well PBST (phosphate buffered saline, 0.05% Tween®20) and 100 μl/well ABTS® (Roche Diagnostics GmbH) is added. Optical density is measured at 405/492 nm in relation to IL-17A binding (set as 100%). Binding to other human IL-17 subtypes (IL-17B, IL-17C, IL-17D, IL-17E and IL-17F) were performed with the same assay format.

Human IL17F = target: T2, Human IL17F; experiment: as above
Description: as §1

Human IL17B = target: T3, Human IL17B; experiment: as above
Description: as §1

Human IL17D = target: T4, Human IL17D; experiment: as above
Description: as §1

[2] = target: T8, recombinant human IL-17 (Peprotech …); experiment: cell-based or functional assay; remark: listed apart in the source
IL-17 A/F = target: T9, IL-17 A/F (human, UniProt Q16552 24-155; Q96PD4 31-163); experiment: SPR (BIAcore T100), antibody captured by anti-human F(ab')2, IL17 as analyte, 25 C, 1:1 model
T9 construct: read as the heterodimer of IL17A and IL17F
Description: (§2) Around 12000 resonance units (RU) of the capturing system (10 μg/ml goat anti human F(ab′)2; Order Code: 28958325; GE Healthcare Bio-Sciences AB, Schweden) were coupled on a CMS chip at pH 5.0 by using an amine coupling kit supplied by the GE Healthcare. The sample and system buffer was PBS-T (10 mM phosphate buffered saline including 0.05% Tween20) pH 7.4. The bispecific antibody was captured by injecting a 50 nM solution for 1 min at a flow of 10 μl/min. Association was measured by injection human IL17 in various concentrations in solution for 3 min at a flow of 30 μl/min starting with 50 nM in 1:1 dilutions. The dissociation phase was monitored for up to 5 min and triggered by switching from the sample solution to running buffer. The surface was regenerated by two times 60 sec. washing with a glycin pH 2.1 solution at a flow rate of 30 μl/min. Bulk refractive index differences were corrected by subtracting the response obtained from a goat anti human F(ab′)2 surface. Blank injections are also subtracted (=double referencing). For calculation of apparent KD and other kinetic parameters the Langmuir 1:1 model was used.

IL-17 F/F = target: T5, IL-17 F/F; experiment: SPR (BIAcore T100), antibody captured by anti-human F(ab')2, IL17 as analyte, 25 C
Description: as §2

human IL17A/A = human IL17A/A (human, UniProt Q16552 24-155, limits assumed); experiment: SPR (BIAcore T100), antibody captured by anti-human F(ab')2, IL17 as analyte, 25 C, apparent KD, 1:1 model
Description: as §2

human Tweak-Fc [3] = target: T6, human Tweak-Fc; experiment: SPR (BIAcore T100), TWEAK ligand (Tweak-Fc) amine-coupled on C1 chip, bispecific antibody as analyte, 25 C, apparent KD, 1:1 model
Excerpt: (§3) The BIAcore® system is well established for the study of molecule interactions. SPR-technology is based on the measurement of the refractive index close to the surface of a gold coated biosensor chip. Changes in the refractive index indicate mass changes on the surface caused by the interaction of immobilized ligand with analyte injected in solution. The mass increases if molecules bind immobilized ligands on the surface, and vice versa, the mass decreases in case of dissociation of the analyte from the immobilized ligand (reflecting complex dissociation). SPR allows a continuous real-time monitoring of ligand/analyte binding and thus the determination of the association rate constant (ka), the dissociation rate constant (kd), and of the equilibrium constant (KD).
(§4) Around 100 resonance units (RU) of TWEAK was immobilized on the C1 chip surface at pH 5.0 using an amine coupling kit supplied by the GE Healthcare. The sample and system buffer was PBS-T (10 mM phosphate buffered saline including 0.05% Tween20) pH 7.4. Association was measured by injection the bispecific antibody in various concentrations in solution for 3 min at a flow of 30 μl/min starting with 50 nM in 1:1 dilutions. The dissociation phase was monitored for up to 10 min and triggered by switching from the sample solution to running buffer. […]

human Tweak-Fc [4] = target: T6, human Tweak-Fc; experiment: SPR (BIAcore T100), TWEAK ligand (Tweak-Fc) amine-coupled on C1 chip, bispecific antibody as analyte, 25 C
Excerpt: as §3, §4

human Tweak-Fc [5] = target: T6, human Tweak-Fc; experiment: SPR (BIAcore T100), TWEAK ligand (Tweak-Fc) amine-coupled on C1 chip, bispecific antibody as analyte, 25 C, 1:1 model
Excerpt: as §3
Around 100 resonance units (RU) of TWEAK was immobilized on the C1 chip surface at pH 5.0 using an amine coupling kit supplied by the GE Healthcare. The sample and system buffer was PBS-T (10 mM phosphate buffered saline including 0.05% Tween20) pH 7.4. Association was measured by injection the bispecific antibody in various concentrations in solution for 3 min at a flow of 30 μl/min starting with 50 nM in 1:1 dilutions. The dissociation phase was monitored for up to 10 min and triggered by switching from the sample solution to running buffer. The surface was regenerated by three times 30 sec. washing with a 3M MgCl2 solution at a flow rate of 30 μl/min. Bulk refractive index differences were corrected by subtracting the response obtained from a blank-coupled surface. Blank injections are also subtracted (=double referencing). For calculation of apparent KD and other kinetic parameters the Langmuir 1:1 model was used.

[6] = target: T7, Recombinant human TWEAK (R&D Systems; …); experiment: cell-based or functional assay

T8 sequence (Q16552 20-155 limits assumed): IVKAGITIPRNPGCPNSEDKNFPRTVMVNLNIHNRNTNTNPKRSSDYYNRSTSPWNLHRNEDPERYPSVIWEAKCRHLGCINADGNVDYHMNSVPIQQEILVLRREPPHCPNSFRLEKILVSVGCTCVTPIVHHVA
Chain of human IL17A/A (Q16552 24-155 limits assumed): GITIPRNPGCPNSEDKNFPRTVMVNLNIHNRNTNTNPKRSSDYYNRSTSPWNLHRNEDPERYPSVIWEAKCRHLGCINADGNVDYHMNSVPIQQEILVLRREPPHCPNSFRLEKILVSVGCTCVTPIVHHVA
T9 sequence (Q16552 24-155 limits assumed, one chain of several): as the sequence (Q16552 24-155 limits assumed) above

IL-6 IC50 [nM] per valency (IL-17 induced cytokine production, HFLS-RA) [1]	IL-8 IC50 [nM] per valency (IL-17 induced cytokine production, HFLS-RA) [1]	binding result (Human IL17C)	binding result (Human IL17F)	binding result (Human IL17B)	binding result (Human IL17D)	IL-8 Inhibition IC50 (nM) (CCD-25SK cells, IL-17A + TNF-alpha) [2]	Kd (IL-17 A/F)	Kd (human IL17A/A)	Kd (human Tweak-Fc [3])	T½ (human Tweak-Fc [4])	koff (human Tweak-Fc [5])	kon (human Tweak-Fc [5])	IC50 (nM) per valency, Tweak induced HFLS proliferation (CellTiter Glo) [6]	Binder	binding result (IL-17 F/F)
3.56 nM	2.2 nM	no binding (tested: 10 µg/ml antibody)	no binding (tested: 10 µg/ml antibody)	no binding (tested: 10 µg/ml antibody)	no binding (tested: 10 µg/ml antibody)	4.5 nM								<IL17> 9C6-2B6-134 (antibody, V domains shown, Humanized variant) VH: EVQLVESGGGLVQPGGSLRLSCAASGFSLDSYGVHWVRQAPGKGLEWVSVIWSDGTTTYNSALKSRFTISRDNSKNTLYLQMNSLRAEDTAVYYCARDTHYRLYYYAMDYWGQGTTVTVSS VL: DIVMTQSPLSLPVTPGEPASISCRSSQSLVHSNGDTYFHWYLQKPGQSPQLLIYKVSNRFSGVPDRFSGSGSGTDFTLKISRVEAEDVGVYYCSQTTHAPFTFGQGTKLEIK	
1.62 nM	1.74 nM	no binding (tested: 10 µg/ml antibody)	no binding (tested: 10 µg/ml antibody)	no binding (tested: 10 µg/ml antibody)	no binding (tested: 10 µg/ml antibody)	1.8 nM	0.26 nM	0.18 nM						<IL17> 9C6-2B6-136 (antibody, V domains shown, Humanized variant with HC136 and LC136) VH: EVQLVESGGGLVQPGGSLRLSCAASGFSLDSYGVHWVRQATGKGLEWVSVIWSDGTTTYNSALKSRFTISRENAKNSLYLQMNSLRAGDTAVYYCARDTHYRLYYYAMDYWGQGTTVTVSS VL: DIVMTQSPLSLPVTPGEPASISCRSSQSLVHSNGDTYFHWYLQKPGQSPQLLIYKVSNRFSGVPDRFSGSGSGTDFTLKISRVEAEDVGVYYCSQTTHAPFTFGQGTKLEIK	no binding (tested: IL17 injected starting with 50 nM)
		no binding (tested: 10 µg/ml antibody)	no binding (tested: 10 µg/ml antibody)	no binding (tested: 10 µg/ml antibody)	no binding (tested: 10 µg/ml antibody)									<IL17> 9C6-2B6 (antibody, V domains shown, Mouse hybridoma antibody; also called mouse clone <IL17>9C6-2B6) VH: QVQLKESGPGLVAPSQSLSITCTVSGFSLDSYGVHWVRQPPGKGLEWLVVIWSDGTTTYNSALKSRLSITKDNSKSQVFLKMNSLQTDDTAIYYCARDTHYRLYYYAMDYWGQGTSVTVSS VL: DVVMTQTPLSLPVSLGDQASISCRSSQSLVHSNGDTYFHWYLQKPGQSPKLLIYKVSNRFSGVPDRFSGSGSGTDFTLKINRVEAEDLGVYFCSQTTHAPFTFGSGTKLEIK	
1.38 nM	0.9 nM							< 0.2 nM	0.0656 nM	3.63 h	5.31e-05 s⁻¹	810000 M⁻¹ s⁻¹	0.08 nM	Bispecific <Tweak-IL-17> #20 antibody (bispecific antibody, human IgG4 S228P, kappa, Bivalent one-armed scFab format, IgG4 S228P/L235E knobs-into-holes) heavy 1: EVQLVESGGGLVQPGGSLRLSCAASGFSLDSYGVHWVRQATGKGLEWVSVIWSDGTTTYNSALKSRFTISRENAKNSLYLQMNSLRAGDTAVYYCARDTHYRLYYYAMDYWGQGTTVTVSSASTKGPSVFPLAPCSRSTSESTAALGCLVKDYFPEPVTVSWNSGALTSGVHTFPAVLQSSGLYSLSSVVTVPSSSLGTKTYTCNVDHKPSNTKVDKRVESKYGPPCPPCPAPEFEGGPSVFLFPPKPKDTLMISRTPEVTCVVVDVSQEDPEVQFNWYVDGVEVHNAKTKPREEQFNSTYRVVSVLTVLHQDWLNGKEYKCKVSNKGLPSSIEKTISKAKGQPREPQVCTLPPSQEEMTKNQVSLSCAVKGFYPSDIAVEWESNGQPENNYKTTPPVLDSDGSFFLVSRLTVDKSRWQEGNVFSCSVMHEALHNHYTQKSLSLSLGK heavy 2: not shown light: DIVMTQSPLSLPVTPGEPASISCRSSQSLVHSNGDTYFHWYLQKPGQSPQLLIYKVSNRFSGVPDRFSGSGSGTDFTLKISRVEAEDVGVYYCSQTTHAPFTFGQGTKLEIKRTVAAPSVFIFPPSDEQLKSGTASVVCLLNNFYPREAKVQWKVDNALQSGNSQESVTEQDSKDSTYSLSSTLTLSKADYEKHKVYACEVTHQGLSSPVTKSFNRGEC	no binding (tested: IL17 injected starting with 50 nM)
